# Laboratory results: article PMC6820745, “Structural and thermodynamic basis for the recognition of the substrate-binding cleft on hen egg lysozyme by a single-domain antibody” (Scientific Reports, 2019)
# Numbering of substitutions follows the chain as printed.
# B1: D3-L11 (VHH)
# VHH: DVQLVESGGGSVQAGGSLRLSCAASGSTDSIEYMTWFRQAPGKAREGVAALYTHTGNTYYTDSVKGRFTISQDKAKNMAYLRMDSVKSEDTAIYTCGATRKYVPVRFALDQSSYDYWGQGTQVTVSS
# notes: VHH D3-L11 specific for HEL; Synthetic gene in pRA2 with a pelB signal peptide at the N-terminus and a His6-tag at the C-terminus; also called WT; WT antibody; source: E. coli BL21(DE3), purified (Ni-NTA, SEC)
# B2: D3-L11 R106A (VHH)
# VHH: B1 VHH with R106A
# notes: as the VHH chain of m2 with the stated change; source: E. coli BL21(DE3), purified (Ni-NTA, SEC)
# B3: D3-L11 P104A (VHH)
# VHH: B1 VHH with P104A
# notes: as for B2
# B4: D3-L11 F107A (VHH)
# VHH: B1 VHH with F107A
# notes: as for B2
# B5: D3-L11 K101A (VHH)
# VHH: B1 VHH with K101A
# notes: as for B2
# B6: D3-L11 Y52A (VHH)
# VHH: B1 VHH with Y52A
# notes: the substitution is still to be applied; source: E. coli BL21(DE3), purified (Ni-NTA, SEC)
# B7: D3-L11 Y102A (VHH)
# VHH: B1 VHH with Y102A
# notes: as for B6
# Tests used:
# hen egg lysozyme [1] = target: T1, hen egg lysozyme (Gallus gallus (hen), UniProt P00698); assay: SPR; Biacore T200; HEL immobilised on CM5 chip (200 RU); VHH flowed over; 25 °C; PBS with 0.005% Tween 20; global fit to a 1:1 binding model; conditions: both partners purified
# T1 construct: hen egg lysozyme (lysozyme C), bought from Wako Pure Chemical; also called HEL; source: bought: Wako Pure Chemical (Cat. No. 126-02671), used without further purification
# How it was run: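 Binding of the His6-tagged single-domain antibody, expressed in E. coli BL21(DE3) and purified by Ni-NTA and size-exclusion chromatography, was measured by surface plasmon resonance on a Biacore T200 against hen egg lysozyme immobilised on a CM5 chip (200 RU). Runs were at 25 °C in PBS with 0.005% Tween 20, with 300 s contact, 600 s dissociation and regeneration in 1.0 M Arg-HCl pH 4.4. Antibody concentrations were adjusted per mutant. Kd, kon and koff came from global fitting to a 1:1 binding model in BiaEvaluation.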
# hen egg lysozyme [2] = target: T1, hen egg lysozyme; assay: ITC; iTC200; 25 °C; PBS; VHH (10 uM) in the cell titrated with HEL (100 uM); 1:1 binding model; conditions: both partners purified
# hen egg lysozyme [3] = target: T1, hen egg lysozyme; assay: SPR; HEL immobilised; measured at several temperatures; van't Hoff analysis (non-linear regression); PBS with 0.005% Tween 20; KD given for 25 °C from the van't Hoff free energy; conditions: both partners purified
# hen egg lysozyme [4] = target: T1, hen egg lysozyme; assay: SPR; as a1, but KD from the responses in equilibrium (Scatchard plot, 1:1 model); HEL immobilised; 25 °C; PBS with 0.005% Tween 20; conditions: both partners purified
# hen egg lysozyme [5] = target: T2, hen egg lysozyme (hen, UniProt P00698 19-147); assay: SPR; HEL immobilised on CM5 chip (200 RU), VHH flowed over, 22 °C, PBS with 0.005% Tween 20, steady-state responses (Scatchard plot), 1:1 binding model; conditions: both partners purified
# T2 construct: hen egg lysozyme (HEL), bought, used without further purification; also called HEL; source: bought: Wako Pure Chemical (Cat. No. 126-02671)
# hen egg lysozyme [6] = target: T2, hen egg lysozyme; assay: SPR; HEL immobilised on CM5 chip (200 RU), VHH flowed over, 26 °C, PBS with 0.005% Tween 20, steady-state responses (Scatchard plot), 1:1 binding model; conditions: both partners purified
# hen egg lysozyme [7] = target: T2, hen egg lysozyme; assay: SPR; HEL immobilised on CM5 chip (200 RU), VHH flowed over, multi-cycle, 26 °C, PBS with 0.005% Tween 20, global fit to a 1:1 binding model; conditions: both partners purified
# hen egg lysozyme [8] = target: T2, hen egg lysozyme; assay: SPR; HEL immobilised on CM5 chip (200 RU), VHH flowed over, multi-cycle, 10 °C, PBS with 0.005% Tween 20, global fit to a 1:1 binding model; conditions: both partners purified
# hen egg lysozyme [9] = target: T2, hen egg lysozyme; assay: SPR; HEL immobilised on CM5 chip (200 RU), VHH flowed over, 10 °C, PBS with 0.005% Tween 20, steady-state responses (Scatchard plot), 1:1 binding model; conditions: both partners purified
# hen egg lysozyme [10] = target: T2, hen egg lysozyme; assay: ITC; iTC200, 25 °C, PBS; VHH (10 µM) in the cell titrated with HEL (100 µM); 1:1 binding model; two independent measurements; conditions: both partners purified
# hen egg lysozyme [11] = target: T2, hen egg lysozyme; assay: SPR; HEL immobilised on CM5 chip (200 RU), VHH flowed over, 14 °C, PBS with 0.005% Tween 20, steady-state responses (Scatchard plot), 1:1 binding model; conditions: both partners purified
# hen egg lysozyme [12] = target: T2, hen egg lysozyme; assay: SPR; HEL immobilised on CM5 chip (200 RU), VHH flowed over, 30 °C, PBS with 0.005% Tween 20, steady-state responses (Scatchard plot), 1:1 binding model; conditions: both partners purified
# hen egg lysozyme [13] = target: T2, hen egg lysozyme; assay: SPR; HEL immobilised on CM5 chip (200 RU), VHH flowed over, 18 °C, PBS with 0.005% Tween 20, steady-state responses (Scatchard plot), 1:1 binding model; conditions: both partners purified
# hen egg lysozyme [14] = target: T2, hen egg lysozyme; assay: SPR; HEL immobilised on CM5 chip (200 RU), VHH flowed over, multi-cycle, 18 °C, PBS with 0.005% Tween 20, global fit to a 1:1 binding model; conditions: both partners purified
# hen egg lysozyme [15] = target: T2, hen egg lysozyme; assay: SPR; HEL immobilised on CM5 chip (200 RU), VHH flowed over, multi-cycle, 22 °C, PBS with 0.005% Tween 20, global fit to a 1:1 binding model; conditions: both partners purified
# hen egg lysozyme [16] = target: T2, hen egg lysozyme; assay: SPR; HEL immobilised on CM5 chip (200 RU), VHH flowed over, multi-cycle, 14 °C, PBS with 0.005% Tween 20, global fit to a 1:1 binding model; conditions: both partners purified
# hen egg lysozyme (hen) [17] = target: hen egg lysozyme (hen) (UniProt P00698); assay: SPR; HEL immobilised; measured at several temperatures; van't Hoff analysis (non-linear regression); PBS with 0.005% Tween 20; KD given for 25 °C from the van't Hoff free energy
# hen egg lysozyme (hen) [18] = target: hen egg lysozyme (hen) (UniProt P00698); assay: SPR; as a1, but KD from the responses in equilibrium (Scatchard plot, 1:1 model); HEL immobilised; 25 °C; PBS with 0.005% Tween 20
# hen egg lysozyme (hen) [19] = target: hen egg lysozyme (hen) (UniProt P00698); assay: SPR; Biacore T200; HEL immobilised on CM5 chip (200 RU); VHH flowed over; 25 °C; PBS with 0.005% Tween 20; global fit to a 1:1 binding model
# hen egg lysozyme (hen) [20] = target: hen egg lysozyme (hen) (UniProt P00698); assay: ITC; iTC200; 25 °C; PBS; VHH (10 uM) in the cell titrated with HEL (100 uM); 1:1 binding model
# T1 sequence (P00698 19-147): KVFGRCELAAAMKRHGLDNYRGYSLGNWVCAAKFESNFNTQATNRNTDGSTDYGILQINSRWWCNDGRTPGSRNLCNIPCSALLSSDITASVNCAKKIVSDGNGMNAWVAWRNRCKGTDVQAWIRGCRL
# T2 sequence (P00698 19-147): as above
# Chain of hen egg lysozyme (hen) (P00698 19-147): as above
binder,measurement,setting,value
B1,Kd,hen egg lysozyme [1],0.129 nM
same,koff,hen egg lysozyme [1],0.000785 s⁻¹
same,kon,hen egg lysozyme [1],6.1e+06 M⁻¹ s⁻¹
same,dH,hen egg lysozyme [2],-21.4 ± 0.6 kcal/mol
same,dH (van't Hoff),hen egg lysozyme [3],-17 kcal/mol
B2,Kd,hen egg lysozyme [1],1.65 nM
same,koff,hen egg lysozyme [1],0.00183 s⁻¹
same,kon,hen egg lysozyme [1],1.11e+06 M⁻¹ s⁻¹
B3,Kd,hen egg lysozyme [4],44.8 ± 19 nM
same,Kd,hen egg lysozyme [1],13 nM
same,koff,hen egg lysozyme [1],0.226 s⁻¹
same,kon,hen egg lysozyme [1],1.74e+07 M⁻¹ s⁻¹
B4,Kd,hen egg lysozyme [1],1.63 nM
same,koff,hen egg lysozyme [1],0.0147 s⁻¹
same,kon,hen egg lysozyme [1],8.99e+06 M⁻¹ s⁻¹
B5,Kd,hen egg lysozyme [1],0.0911 nM
same,koff,hen egg lysozyme [1],0.000687 s⁻¹
same,kon,hen egg lysozyme [1],7.54e+06 M⁻¹ s⁻¹
B6,Kd,hen egg lysozyme [5],99.2 ± 7.4 nM
same,Kd,hen egg lysozyme [6],119 ± 9 nM
same,Kd,hen egg lysozyme [7],52.9 nM
same,koff,hen egg lysozyme [7],0.144 s⁻¹
same,kon,hen egg lysozyme [7],2.72e+06 M⁻¹ s⁻¹
same,Kd,hen egg lysozyme [8],21.2 nM
same,koff,hen egg lysozyme [8],0.037 s⁻¹
same,kon,hen egg lysozyme [8],1.74e+06 M⁻¹ s⁻¹
same,Kd,hen egg lysozyme [9],60.5 ± 4.3 nM
same,Kd,hen egg lysozyme [10],1000 nM
same,stoichiometry N,hen egg lysozyme [10],0.93
same,Kd,hen egg lysozyme [11],71.4 ± 5.3 nM
same,Kd,hen egg lysozyme [12],142 ± 10 nM
same,Kd,hen egg lysozyme [13],83.4 ± 6.5 nM
same,Kd,hen egg lysozyme [14],33 nM
same,koff,hen egg lysozyme [14],0.0731 s⁻¹
same,kon,hen egg lysozyme [14],2.21e+06 M⁻¹ s⁻¹
same,Kd,hen egg lysozyme [15],40.8 nM
same,koff,hen egg lysozyme [15],0.102 s⁻¹
same,kon,hen egg lysozyme [15],2.5e+06 M⁻¹ s⁻¹
same,Kd,hen egg lysozyme [16],26.5 nM
same,koff,hen egg lysozyme [16],0.0515 s⁻¹
same,kon,hen egg lysozyme [16],1.94e+06 M⁻¹ s⁻¹
B7,Kd,hen egg lysozyme [5],529 ± 55 nM
same,Kd,hen egg lysozyme [6],658 ± 64 nM
same,Kd,hen egg lysozyme [7],418 nM
same,koff,hen egg lysozyme [7],0.83 s⁻¹
same,kon,hen egg lysozyme [7],1.99e+06 M⁻¹ s⁻¹
same,Kd,hen egg lysozyme [8],100 nM
same,koff,hen egg lysozyme [8],0.116 s⁻¹
same,kon,hen egg lysozyme [8],1.15e+06 M⁻¹ s⁻¹
same,Kd,hen egg lysozyme [9],303 ± 32 nM
same,Kd,hen egg lysozyme [10],1800 nM
same,stoichiometry N,hen egg lysozyme [10],1.23
same,Kd,hen egg lysozyme (hen) [17],413 nM
same,dH (van't Hoff),hen egg lysozyme (hen) [17],-12 kcal/mol
same,Kd,hen egg lysozyme [11],348 ± 42 nM
same,Kd,hen egg lysozyme (hen) [18],635 nM
same,Kd,hen egg lysozyme [12],867 ± 70 nM
same,Kd,hen egg lysozyme (hen) [19],295 nM
same,koff,hen egg lysozyme (hen) [19],0.686 s⁻¹
same,kon,hen egg lysozyme (hen) [19],2.32e+06 M⁻¹ s⁻¹
same,Kd,hen egg lysozyme [13],429 ± 48 nM
same,ddH against WT antibody (ITC),hen egg lysozyme (hen) [20],4.8 kcal/mol
same,Kd,hen egg lysozyme [14],191 nM
same,koff,hen egg lysozyme [14],0.309 s⁻¹
same,kon,hen egg lysozyme [14],1.62e+06 M⁻¹ s⁻¹
same,Kd,hen egg lysozyme [15],233 nM
same,koff,hen egg lysozyme [15],0.479 s⁻¹
same,kon,hen egg lysozyme [15],2.06e+06 M⁻¹ s⁻¹
same,Kd,hen egg lysozyme [16],146 nM
same,koff,hen egg lysozyme [16],0.201 s⁻¹
same,kon,hen egg lysozyme [16],1.38e+06 M⁻¹ s⁻¹
